# Biological target: target antigen
# Assay: antigen binding ELISA, antigen coated on plate
substance,measurement,value
isotype control (antibody),no binding up to (highest concentration tested),> 5 µM

# Source: patent publication US20250270325A1
